Where “and” joins values, the source holds several entries; their conditions need not be identical. Equal entries are not always repeated.

For test [1], the target named is regulatory domain of human tryptophan hydroxylase 1, C64S (RDTPH1 C64S) (human) (UniProt P17752). Kind of test: SEC.
Test [2] has the same target. Description: AUC.
Test [3] shares this target. Kind of test: SEC. This is another data set of the same source. (In general: In gel filtration, larger molecules generally elute earlier.)

In the case of “regulatory domain of human tryptophan hydroxylase 1, C64S (RDTPH1 C64S) (from UniProt P17752 1-101) (domain or fragment)”, the stoichiometry N – broadly, a count of units in the complex or per binding partner – in test [1] is 2; in test [2] it was 2; in test [3], 2 and 4.

Source of the values: paper PMC4935573.
